The values below come from patent publication US20170342160A1 (CHIOME BIOSCIENCE, published 2017).

The term EC50 (read off the curve) denotes the concentration that produces a half-maximal response. What is called Kd is the constant that tells how readily two partners part at equilibrium.

Test [1] concerns the target T1, recombinant extracellular domain of human 5T4 (soluble, produced in house) (human, UniProt Q13641 32-355).
T1 construct: extracellular domain; The signal peptide lies within residues 1-355 and is not part of the secreted protein; also called 5T4-ECD; 5T4 recombinant protein
T1 sequence: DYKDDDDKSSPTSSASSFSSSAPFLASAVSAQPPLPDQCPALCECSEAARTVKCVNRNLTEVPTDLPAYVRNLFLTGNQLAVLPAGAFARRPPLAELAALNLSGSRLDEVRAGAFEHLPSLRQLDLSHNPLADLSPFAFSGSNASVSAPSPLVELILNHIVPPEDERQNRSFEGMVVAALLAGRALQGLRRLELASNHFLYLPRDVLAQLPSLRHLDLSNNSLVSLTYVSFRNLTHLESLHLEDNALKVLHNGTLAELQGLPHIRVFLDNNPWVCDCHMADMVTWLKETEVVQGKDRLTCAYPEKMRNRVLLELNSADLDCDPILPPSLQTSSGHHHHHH
Nature of the test: ELISA on recombinant 5T4 extracellular domain. The method, then: (§1) For Affinity to 5T4 target antigen an ELISA with the 5T4 antigen is used. Target antigen, 5T4 extra cellular domain, produced in house is coated to polystyrene flat bottom 96 well microplate and blocked. Tribody/sample dilutions were prepared in TBS with 0.2% w/v powdered milk, added to the plate and incubated. Following wash steps, detection antibody is added to the samples (anti-human Kappa light chain AP; e.g. Sigma, Cat. No. K4377). Bound detection antibody is measured by development of a colorimetric reaction upon addition of p-NPP (Cat-No: N7653, Sigma) and the absorbance quantified on a micro-well plate reader and processed by non-linear regression using graph Pad Prism software.
On the technique in general: An ELISA detects its analyte on a solid surface through an enzyme-linked reagent.

Test [2] has as its target T1, recombinant extracellular domain of …. Nature of the test: ELISA on coated 5T4-ECD. The method, then:
as §1

Test [3] shares this target. Nature of the test: ELISA on 5T4 protein (extracellular domain). The method, then: as §1
Test [4] concerns the target T2, human 5T4 on 5T4-positive tumour cells (MSTO-211H mesothelioma cell line and other tumour cell lines) (human, UniProt Q13641 32-420).
T2 sequence (looked up): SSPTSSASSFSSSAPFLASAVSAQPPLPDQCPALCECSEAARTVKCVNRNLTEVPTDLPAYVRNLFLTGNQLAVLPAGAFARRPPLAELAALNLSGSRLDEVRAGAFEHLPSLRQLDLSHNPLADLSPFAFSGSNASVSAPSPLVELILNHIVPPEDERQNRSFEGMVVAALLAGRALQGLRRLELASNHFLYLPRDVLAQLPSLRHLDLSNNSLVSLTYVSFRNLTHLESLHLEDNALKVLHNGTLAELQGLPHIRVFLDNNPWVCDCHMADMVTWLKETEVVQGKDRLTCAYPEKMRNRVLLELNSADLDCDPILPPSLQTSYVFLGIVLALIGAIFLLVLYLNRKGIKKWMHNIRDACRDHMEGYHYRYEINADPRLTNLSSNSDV
The experiment in a line: cell-based or functional assay.

In test [5] the target is T1, recombinant extracellular domain of …. The experiment in a line: row '5T4-binding (KD)'; ELISA on 5T4 extracellular domain (panel A). As to the method: as §1
For test [6], the target named is T3, human CD3 (CD3 receptor complex on T cells) on Jurkat cells and on human PBMC (human, UniProt P07766 23-207).
T3 construct: whole, on cells; The other chains of the complex are not specified; also called human CD3 domain; CD3 epsilon
The experiment in a line: row 'CD3 binding (KD)'; cellular ELISA on Jurkat T-cells (panel B). As to the method: For Affinity to the human CD3 domain, a cell based ELISA with a T-cell lymphoma (CD3+) cell line, Jurkat, was used. Jurkat cells are collected, washed and aliquoted into each well of a round-bottom 96 well microplate. Tribody/sample dilutions were prepared in PBS, added to the cells and incubated. Following wash steps, detection antibody is added to the samples (anti-human Kappa light chain AP; e.g. Sigma, Cat. No. K4377). Bound detection antibody is measured by development of a colorimetric reaction upon addition of p-NPP (Cat-No: N7653, Sigma) and the absorbance quantified on a micro-well plate reader and processed by non-linear regression using graph Pad Prism software.

Test [7] deals with T2, human 5T4 on 5T4-positive tumour cells …. The experiment in a line: FACS titration on MSTO-211H cells. As to the method: (§2) To access the binding of anti-5T4 molecules (scFv, Fab and Tribody format) to the human 5T4 domain, the biphasic mesothelioma cell line MSTO-211H (ATCC CRL-2081) was tested by FACS binding assay with direct labelled molecules with Allophycocyanin (APC) by the Lightning-Link® APC kit from Innova Biosciences, following the manufacturer instructions.
(§3) Cells are then washed twice with PBS and binding to cell surface is accessed by flow cytometry using a BD FACsalibur apparatus.

Test [8] has as its target T3, human CD3 (CD3 receptor complex on T …). The experiment in a line: cell binding titration (Abs 405nm) on human PBMC, donor printed as PBMC49966.
Test [9] addresses T2, human 5T4 on 5T4-positive tumour cells …. The experiment in a line: FACS titration on MSTO-211H cells (row 'FACS' of the inset table 'Method / KD Tb535H (nM)'). As to the method: as §2, §3
The target in test [10] is T3, human CD3 (CD3 receptor complex on T …). Nature of the test: flow cytometry titration on peripheral blood cells of 3 different donors; peripheral blood cells of 3 different donors; cell-binding titration, KD = 50% binding concentration.
Test [11] has the same target. Nature of the test: cell binding titration (Abs 405nm) on human PBMC, donor PBMC#5886.
Test [12] has the same target. Nature of the test: cell binding titration (Abs 405nm) on human PBMC, donor PBMC#2053.

T3 sequence (P07766 23-207, one chain of several): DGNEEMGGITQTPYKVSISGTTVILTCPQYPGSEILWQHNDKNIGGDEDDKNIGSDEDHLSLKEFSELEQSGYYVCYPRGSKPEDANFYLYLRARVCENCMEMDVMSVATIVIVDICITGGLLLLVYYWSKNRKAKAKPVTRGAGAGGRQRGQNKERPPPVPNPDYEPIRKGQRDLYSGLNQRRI

B1: dsFv(5T4), humanized VH(5T4) SEQ ID 6 and VL(5T4) SEQ ID 19 in dsFv format (scFv)
scFv: QVQLVQSGAEVKKPGASVKVSCKASGYSFTSYYMHWVKQSPGQCLEWIGRINPNNGVTLYNQKFKDRVTMTRDTSISTAYMELSRLRSDDTAVYYCARSTMITNYVMDYWGQGTLVTVSSASGGGGSGGGGSGGGGSAGDIVMTQSPDSLAVSLGERATINCKASQSVSNDVAWYQQKPGQPPKLLIYYTSSRYAGVPDRFSGSGSGTDFTLTISSLQAEDVAVYYCQQDYNSPPTFGCGTKLEIK
notes: also called dsFvhu5T4; scFv
With B1, in test [1], the “EC50 (read off the curve)” value is about 1 nM. In [2], the Kd is 2.3 nM.

B2: Tb535C, chimeric 5T4xCD3 Tribody fusion protein based on murine 5T4 binders (bispecific antibody)
chain 1: EVQLQQSGPDLVKPGASVKISCKASGYSFTGYYMHWVKQSPGKGLEWIGRINPNNGVTLYNQKFKDKATLTVDKSSTTAYMELRSLTSEDSAVYYCARSTMITNYVMDYWGQGTSVTVSSASTKGPSVFPLAPSSKSTSGGTAALGCLVKDYFPEPVTVSWNSGALTSGVHTFPAVLQSSGLYSLSSVVTVPSSSLGTQTYICNVNHKPSNTKVDKKVEPKSCDKTHTGPGGGSPGQVQLVQSGAELKKPGASVKVSCKASGYTFTRYTMHWVRQAPGQCLEWMGYINPSRGYTNYNQKFKDKATLTADKSTSTAYMELRSLRSDDTAVYYCARYYDDHYSLDYWGQGTLVTVSSASGGGGSGGGGSGGGGSAGDIQLTQSPSILSASVGDRVTITCRASSSVSYMNWYQQKPGKAPKRWIYDTSKVASGVPYRFSGSGSGTEYTLTISSMQPEDFATYYCQQWSSNPLTFGCGTKVEIK
chain 2: SIVMTQTPTSLLVSAGDRVTITCKASQSVSNDVAWYQQKPGQSPKLLISYTSSRYAGVPDRFSGSGYGTDFTLTISSVQAEDAAVYFCQQDYNSPPTFGGGTKLEIKRTVAAPSVFIFPPSDEQLKSGTASVVCLLNNFYPREAKVQWKVDNALQSGNSQESVTEQDSKDSTYSLSSTLTLSKADYEKHKVYACEVTHQGLSSPVTKSFNRGECGPGGGSPGEVQLVQSGPDDVKPGGSVKISCKASGYSFTGYYMHWVKQSPGKCLEWIGRINPNNGVTLYNQKFKDKATLTVDKSSTTAYMELRSLTSEDSAVYYCARSTMITNYVMDYWGQGTLVTVSSASGGGGSGGGGSGGGGSAGDIVMTQTPTSLLVSAGDRVTITCKASQSVSNDVAWYQQKPGQSPKLLISYTSSRYAGVPDRFSGSGYGTDFTLTISSVQAEDAAVYFCQQDYNSPPTFGCGTKLEIKSG
notes: Heterodimer through CH1:CL; also called Tribody based on the murine variable domains
Turning to B2, in [3], the “EC50 (read off the curve)” value is about 0.7 nM. For the same molecule, the “EC50 of cytotoxicity (MSTO-211H target cells with human PBMC)” value in [4] is 0.01 nM. In addition, the Kd in test [5] turned out to be 0.8 nM; in test [2], 1 nM; in test [6] it was 30 nM.

B3: Fab(5T4), humanized VH(5T4) SEQ ID 6 and VL(5T4) SEQ ID 19 in Fab format (Fab, V domains shown)
VH: QVQLVQSGAEVKKPGASVKVSCKASGYSFTSYYMHWVKQSPGQGLEWIGRINPNNGVTLYNQKFKDRVTMTRDTSISTAYMELSRLRSDDTAVYYCARSTMITNYVMDYWGQGTLVTVSS
VL: DIVMTQSPDSLAVSLGERATINCKASQSVSNDVAWYQQKPGQPPKLLIYYTSSRYAGVPDRFSGSGSGTDFTLTISSLQAEDVAVYYCQQDYNSPPTFGGGTKLEIK
notes: Fab format
As to B3, the “EC50 (read off the curve)” value in test [1] is about 2 nM. In addition, the Kd in [2] turned out to be 2.9 nM.

B4: IgG(5T4), humanized VH(5T4) SEQ ID 6 and VL(5T4) SEQ ID 19 in IgG format (antibody, V domains shown)
VH: B3 VH
VL: B3 VL
notes: also called IgG1(5T4)
As for B4, in test [2], the Kd is 0.7 nM.

B5: BiTE format, scFv(5T4)-scFv(CD3) fusion with humanized VH(5T4) SEQ ID 6 and VL(5T4) SEQ ID 19 (bispecific antibody, V domains shown)
VH: B3 VH
VL: B3 VL
notes: The molecule is a single polypeptide, scFv(5T4)-scFv(CD3); also called scFv-scFv format
Consider B5, for which the equilibrium dissociation constant (Kd) in test [2] came out at 2 nM.

B6: Tb535H, humanized 5T4xCD3 Tribody fusion protein (Fab(5T4) with C-terminal dsFv(CD3) and dsFv(5T4)) (bispecific antibody)
chain 1: QVQLVQSGAEVKKPGASVKVSCKASGYSFTSYYMHWVKQSPGQGLEWIGRINPNNGVTLYNQKFKDRVTMTRDTSISTAYMELSRLRSDDTAVYYCARSTMITNYVMDYWGQGTLVTVSSASTKGPSVFPLAPSSKSTSGGTAALGCLVKDYFPEPVTVSWNSGALTSGVHTFPAVLQSSGLYSLSSVVTVPSSSLGTQTYICNVNHKPSNTKVDKKVEPKSCDKTHTGPGGGSPGQVQLVQSGAELKKPGASVKVSCKASGYTFTRYTMHWVRQAPGQCLEWMGYINPSRGYTNYNQKFKDKATLTADKSTSTAYMELRSLRSDDTAVYYCARYYDDHYSLDYWGQGTLVTVSSASGGGGSGGGGSGGGGSAGDIQLTQSPSILSASVGDRVTITCRASSSVSYMNWYQQKPGKAPKRWIYDTSKVASGVPYRFSGSGSGTEYTLTISSMQPEDFATYYCQQWSSNPLTFGCGTKVEIKSG
chain 2: not shown
notes: also called Tb535H-1120; Tb-5T4
Take B6: the “EC50 (read off the curve)” value in [3] is about 1 nM; in test [7], about 5 nM; in [1], about 1 nM. The “EC50 of cytotoxicity (MSTO-211H target cells with human PBMC)” value in [4] came to 0.007 nM. Further, the Kd in [5] was 1.1 nM; in test [8] it was 26 nM; in test [2] it was 0.9 nM; in test [9], 4.6 nM; in [10], about 25 nM; in [11], 24 nM. In addition, the Kd in [6] was 23 nM; in test [12] it was 26 nM.
